Laboratory results: the supplement of paper PMC6757056
± gives the standard deviation of the averaged measurements.

B1: library; a variant is named by its letters at N, in order (parent)
chain: GCUGUCACCGGUGUAUUACCCUAGUGGUCGACCGGUCUGAUGAGUCUNNNNNNAGACGAAACAGC

Legend:
hypoxanthine [1] = variants of: B1; test: FACS-Seq fitted mean relative fluorescence mCherry/BFP without ligand (log10 relative fluorescence); ligand: hypoxanthine (xanthine aptamer); higher = higher reporter protein expression; conditions: HEK293T, ligand present: no
Protocol: (§1)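 Hammerhead (sTRSV) ribozyme switch libraries with a ligand aptamer grafted on stem I and a randomized N4-6 loop II, cloned into the 3' UTR of mCherry and transiently transfected into HEK293T cells; RNA-Seq 72 h post transfection with ligand added 1 h before transfection; RNA read count / plasmid DNA read count normalized to the non-cleaving sTRSVctl (x100), log10; sequences with >100 DNA reads. FACS-Seq: lentiviral library sorted into 6 bins after 48 h ligand, log-normal fit mean of mCherry/BFP scaled to controls. Printed sequences are partial switch sequences.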

hypoxanthine [2] = variants of: B1; test: normalized RNA/DNA level with ligand (relative to sTRSVctl = 100) (log10 (% of sTRSVctl)); ligand: hypoxanthine (xanthine aptamer); higher = less ribozyme self-cleavage, higher mRNA level; conditions: ligand concentration (+) RNA-Seq: 5 mM, HEK293T, reporter: mCherry (pCS4076), ligand present: yes
Protocol: as §1

hypoxanthine [3] = variants of: B1; test: normalized RNA/DNA level without ligand (relative to sTRSVctl = 100) (log10 (% of sTRSVctl)); ligand: hypoxanthine (xanthine aptamer); higher = less ribozyme self-cleavage, higher mRNA level; conditions: HEK293T, reporter: mCherry (pCS4076), ligand present: no
Protocol: as §1

hypoxanthine [4] = variants of: B1; test: FACS-Seq fitted mean relative fluorescence mCherry/BFP with ligand (log10 relative fluorescence); ligand: hypoxanthine (xanthine aptamer); ligand concentration (+) FACS-Seq: 5 mM; higher = higher reporter protein expression; conditions: HEK293T, ligand present: yes
Method in brief: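 The ribozyme switch sat in an mCherry reporter, delivered by lentivirus into HEK293T libraries along with an EF1α-BFP marker. Enriched cells were incubated 48 h with or without ligand, sorted into 6 bins by mCherry/BFP, and bin genomic DNA was PCR-amplified, barcoded and MiSeq-sequenced. Fluorescence equals the fitted normal mean of the bin counts after normalization. Those log10(mCherry/BFP) means were scaled to five spiked-in control ribozymes.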

Variant	FACS-Seq fitted mean (log10) (hypoxanthine [1])	normalized RNA/DNA level with ligand (log10) (hypoxanthine [2])	normalized RNA/DNA level without ligand (log10) (hypoxanthine [3])	FACS-Seq fitted mean (log10) (hypoxanthine [4])
AACAGU	-0.0447 ± 0.045	1.87 ± 0.047	1.54 ± 0.018	0.4214 ± 0.0042
CACAUA	0.738 ± 0.084	1.91 ± 0.07	1.73 ± 0.047	0.656 ± 0.076
GACAUA	0.382 ± 0.011	1.91 ± 0.027	1.79 ± 0.027	0.373 ± 0.037
AACAUA	0.665 ± 0.084	1.89 ± 0.021	1.801 ± 0.018	0.63 ± 0.035
GACAUG	0.405 ± 0.11	1.81 ± 0.032	1.4 ± 0.0058	0.472 ± 0.081
UACAUG	-0.317 ± 0.071	1.93 ± 0.029	1.69 ± 0.018	0.0659 ± 0.069
AACAUG	0.137 ± 0.021	1.861 ± 0.0051	1.44 ± 0.042	0.447 ± 0.013
GACCAA	0.126 ± 0.012	1.9242 ± 0.00022	1.81 ± 0.019	0.21 ± 0.049
UACCAA	-0.105 ± 0.11	1.92 ± 0.036	1.838 ± 0.011	-0.235 ± 0.035
AACCAC	0.0153 ± 0.085	1.91 ± 0.036	1.78 ± 0.037	0.246 ± 0.02
CACCAC	0.232 ± 0.012	1.92 ± 0.056	1.81 ± 0.063	0.406 ± 0.036
AACCAG	0.356 ± 0.091	1.82 ± 0.027	1.41 ± 0.049	0.678 ± 0.017
GACCAG	0.136 ± 0.033	1.865 ± 0.0019	1.55 ± 0.073	0.531 ± 0.013
UACCAG	0.0403 ± 0.078	1.87 ± 0.015	1.589 ± 0.0032	0.0509 ± 0.085
AACCCA	0.217 ± 0.063	1.92 ± 0.022	1.85 ± 0.042	0.245 ± 0.0026
GACCCC	0.0047 ± 0.072	1.94 ± 0.019	1.87 ± 0.038	0.161 ± 0.06
UACCCC	0.5672 ± 0.0022	1.95 ± 0.062	1.9 ± 0.064	0.523 ± 0.047
AACCCG	0.577 ± 0.077	1.84 ± 0.088	1.378 ± 0.013	0.751 ± 0.043
GACCCG	0.0296 ± 0.027	1.89 ± 0.022	1.632 ± 0.016	0.292 ± 0.047
GACCCU	-0.308 ± 0.41	1.99 ± 0.023	1.972 ± 0.0096	0.1808 ± 0.00023
AACCGA	0.422 ± 0.041	1.9477 ± 0.0019	1.72 ± 0.019	0.533 ± 0.044
CACCGA	0.374 ± 0.048	1.94 ± 0.0088	1.8 ± 0.038	0.516 ± 0.011
UACCGA	0.439 ± 0.021	1.91 ± 0.041	1.75 ± 0.024	0.551 ± 0.044
AACCGC	-0.101 ± 0.015	1.916 ± 0.014	1.79 ± 0.036	0.124 ± 0.016

Variant	FACS-Seq fitted mean (log10) (hypoxanthine [1])	normalized RNA/DNA level with ligand (log10) (hypoxanthine [2])	normalized RNA/DNA level without ligand (log10) (hypoxanthine [3])	FACS-Seq fitted mean (log10) (hypoxanthine [4])
AACCGG	0.0275 ± 0.00055	1.877 ± 0.011	1.43 ± 0.031	0.526 ± 0.015
UACCGG	0.141 ± 0.038	1.91 ± 0.0042	1.63 ± 0.038	0.197 ± 0.15
AACCGU	0.798 ± 0.12	1.889 ± 0.0024	1.75 ± 0.057	0.637 ± 0.047
GACCGU	0.658 ± 0.04	1.933 ± 0.0015	1.91 ± 0.0056	0.698 ± 0.013
UACCGU	0.0177 ± 0.0044	1.95 ± 0.08	1.7185 ± 0.00046	0.448 ± 0.028
UACCUA	0.48 ± 0.072	1.93 ± 0.0042	1.921 ± 0.019	0.369 ± 0.023
AACCUG	0.131 ± 0.046	1.81 ± 0.02	1.38 ± 0.028	0.4422 ± 0.0015
GACCUG	0.408 ± 0.074	1.887 ± 0.0022	1.52 ± 0.018	0.608 ± 0.095
UACCUG	-0.0249 ± 0.053	1.93 ± 0.024	1.635 ± 0.012	0.0984 ± 0.069
CACCUU	-0.395 ± 0.03	1.97 ± 0.03	1.87 ± 0.044	-0.0406 ± 0.045
AACGAA	-0.1232 ± 0.00029	1.88 ± 0.068	1.67 ± 0.042	-0.425 ± 0.21
CACGAA	0.226 ± 0.02	1.87 ± 0.02	1.72 ± 0.037	0.363 ± 0.022
GACGAA	0.408 ± 0.047	1.9 ± 0.056	1.7 ± 0.0095	0.566 ± 0.012
UACGAA	0.0406 ± 0.024	1.9122 ± 0.00026	1.69 ± 0.013	0.191 ± 0.012
AACGAC	0.305 ± 0.007	1.94 ± 0.02	1.79 ± 0.028	0.279 ± 0.064
GACGAC	-0.384 ± 0.063	1.9292 ± 0.0013	1.67 ± 0.017	-0.465 ± 0.092
AACGAG	0.131 ± 0.0019	1.75 ± 0.031	1.22 ± 0.062	0.553 ± 0.084
GACGAG	0.184 ± 0.028	1.76 ± 0.056	1.31 ± 0.017	0.597 ± 0.026
UACGAG	0.145 ± 0.0054	1.88 ± 0.069	1.4 ± 0.058	0.382 ± 0.014
GACGAU	0.412 ± 0.021	1.91 ± 0.027	1.75 ± 0.023	0.672 ± 0.053
UACGAU	0.105 ± 0.066	1.92 ± 0.041	1.715 ± 0.015	-0.543 ± 0.12
UACGCA	-0.76 ± 0.081	1.924 ± 0.0096	1.82 ± 0.019	-0.297 ± 0.075
AACGCC	0.0156 ± 0.023	1.94 ± 0.048	1.84 ± 0.037	0.1 ± 0.21
AACGCG	-0.0882 ± 0.017	1.812 ± 0.011	1.33 ± 0.08	0.162 ± 0.024

Variant	FACS-Seq fitted mean (log10) (hypoxanthine [1])	normalized RNA/DNA level with ligand (log10) (hypoxanthine [2])	normalized RNA/DNA level without ligand (log10) (hypoxanthine [3])	FACS-Seq fitted mean (log10) (hypoxanthine [4])
AACGCU	0.624 ± 0.015	1.94 ± 0.032	1.85 ± 0.023	0.548 ± 0.11
CACGCU	0.785 ± 0.049	1.93 ± 0.034	1.87 ± 0.021	0.774 ± 0.079
GACGCU	0.261 ± 0.12	1.94 ± 0.037	1.893 ± 0.0077	0.508 ± 0.048
AACGGA	0.375 ± 0.033	1.917 ± 0.01	1.62 ± 0.035	0.525 ± 0.041
UACGGA	0.543 ± 0.045	1.927 ± 0.0098	1.59 ± 0.03	0.703 ± 0.039
AACGGC	0.644 ± 0.088	1.95 ± 0.02	1.816 ± 0.012	0.696 ± 0.074
UACGGC	0.35 ± 0.0036	1.95 ± 0.0066	1.795 ± 0.0028	0.542 ± 0.1
AACGGG	0.0434 ± 0.0087	1.83 ± 0.074	1.38 ± 0.036	0.516 ± 0.021
UACGGG	0.0501 ± 0.0033	1.928 ± 0.0024	1.509 ± 0.013	0.553 ± 0.062
AACGGU	0.118 ± 0.036	1.88 ± 0.034	1.577 ± 0.01	0.3457 ± 0.0031
CACGGU	0.663 ± 0.025	1.869 ± 0.0027	1.758 ± 0.0045	0.669 ± 0.15
AACGUA	0.494 ± 0.032	1.86 ± 0.058	1.702 ± 0.0047	0.516 ± 0.1
CACGUA	0.4515 ± 0.0024	1.9 ± 0.016	1.784 ± 0.0067	0.594 ± 0.022
AACGUC	0.221 ± 0.029	2.01 ± 0.052	1.949 ± 0.0078	0.255 ± 0.0059
AACGUG	0.285 ± 0.021	1.817 ± 0.013	1.3 ± 0.041	0.737 ± 0.012
GACGUU	0.455 ± 0.066	1.9 ± 0.044	1.853 ± 0.0023	0.575 ± 0.066
CACUAA	0.376 ± 0.014	1.8618 ± 0.00057	1.74 ± 0.025	0.456 ± 0.0093
AACUAA	0.536 ± 0.12	1.937 ± 0.014	1.81 ± 0.035	0.663 ± 0.043
GACUAA	0.354 ± 0.073	1.89 ± 0.027	1.796 ± 0.0046	0.515 ± 0.01
UACUAA	0.00308 ± 0.026	1.91 ± 0.023	1.8 ± 0.025	0.206 ± 0.073
AACUAC	0.621 ± 0.011	1.922 ± 0.014	1.841 ± 0.0075	0.653 ± 0.028
AACUAG	0.232 ± 0.032	1.819 ± 0.011	1.473 ± 0.0054	0.521 ± 0.045
UACUAG	0.177 ± 0.053	1.9142 ± 0.0014	1.65 ± 0.033	0.506 ± 0.038
